Data taken from US20220204583A1 (published 2022).

Molecular target: MBECs (cultured cells)
Assay: equilibrium titration on cultured MBECs; apparent affinity

Row | Kd [nM] | Binder
1 | 68.2 | VLR-Fc-46 (Fc fusion) ACPSQCSCSGTTVDCSGKSLASVPTGIPTTTRWLHLHRNQLTKLEPGVFDSLTQLTYLNLGGNQLTALPVGVFDKLTNLKELKLYSNQLQALSEGLFDRLGKLQHLDLSKNQLKSIPHGAFDRLSSLTHAYLFGNPWDCECRDIMYLRNWVADHTSIVMRWDGKAVNDPDSAKCAGTNTPVRAVTEASTSPSKCPGYVAT
2 | 5.4 | VLR-Fc-30 (Fc fusion) ACPSQCSCSGTTVDCSGKSLASVPTGIPTTTQILRLYRNQITKLEPGVFDSLTQLTYLNLGGNQLTALPVGVFDKLTNLKELKLYSNQLQALSEGLFDRLGKLQHLDLSKNQLKSIPHGAFDRLSSLTHAYLFGNPWDCECRDIMYLRNWVADHTSIVMRWDGKAVNDPDSAKCAGTNTPVRAVTEASTSPSKCPGYVAT
3 | 10.4 | VLR-Fc-11 (Fc fusion) ACPSQCSCSGTEVRCESRSLASVPAGIPTTTRRLHLHRNQLTKLEPGVFDSLTQLTYLNLGGNQLTALPVGVFDKLTNLKELKLYSNQLQALSEGLFDRLGKLQHLDLSKNQLKSIPHGAFDRLSSLTHAYLFGNPWDCECRDIMYLRNWVADHTSIVMRWDGKAVNDPDSAKCAGTNTPVRAVTEASTSPSKCPGYVAT
